Assay results from paper PMC5624926.

Assay: recombinant expression of point mutants
Conditions: glycan lost; control: wild-type CD22 20-330

CD22 (Siglec-2): N101A
expression_or_secretion: decreases
